From publication PMC5306213, “Common Distribution of gad Operon in Lactobacillus brevis and its GadA Contributes to Efficient GABA Synthesis toward Cytosolic Near-Neutral pH” (Frontiers in Microbiology, 2017) come the findings set out here.

The term Km denotes the substrate concentration at which the rate is half of its maximum. What is called Vmax is the top rate of the reaction or transport when substrate is in excess. The term kcat denotes the number of substrate molecules converted per active site and unit of time at saturation. The kcat/Km is the second-order rate constant that governs catalysis at low substrate concentration.

Substrate in data set [1]: N[C@@H](CCC(=O)O)C(=O)O
The data set can be described thus: glutamate decarboxylation assay, Michaelis-Menten fit. The format is biochemical, Levilactobacillus brevis. The settings on record: pH 4.8, 45 °C, sulfate buffer (0.8 M sodium sulfate, 50 mM sodium acetate), PLP, glutamate 0.9-36 mM. An excerpt:
glutamate decarboxylation assay, Michaelis-Menten fit on Lb. brevis GadA (WT)

Substrate in data set [2]: N[C@@H](CCC(=O)O)C(=O)O
The description is as above. The format is biochemical, Lactiplantibacillus plantarum. The settings on record: pH 4.8, 60 °C, McIlvaine (citrate-phosphate) buffer, PLP, glutamate 0.9-36 mM. An excerpt: glutamate decarboxylation assay, Michaelis-Menten fit on Lb. plantarum GadB

B1: Lb. brevis GadA (WT) (Levilactobacillus brevis ATCC 367) (protein)
chain: MNKNDQETQQMINNVDLEKTFLGSVEAGQSLPTNTLPDDPMAPDVAAQLVEHYRLNEAKANQNLATFCTTQMEPQADELMKNALNTNAIDKSEYPKTAAMENYCVSMIAHLWGIPDNEKIYDDFIGTSTVGSSEGCMLGGLALLHSWKHRAKAAGFDIEDLHSHKPNLVIMSGYQVVWEKFCTYWNVEMRQVPINGDQVSLDMDHVMDYVDENTIGIIGIEGITYTGSVDDIQTLDNLVTEYNKTATMPVRIHVDAAFGGLFAPFVDGFNPWDFRLKNVVSINVSGHKYGMVYPGLGWIVWRHNTADILPAEMRFQVPYLGKTVDSIAINFSHSGAHISAQYYNFIRFGLSGYKTIMQNVRKVSLKLTAALKTYGIFDILVDGSQLPINCWKLADDAPVGWTLYDLESELAKYGWQVPAYPLPKNRDDVTISRIVVRPSMTMTIADDFLDDLKLAIDGLNHTFGVTTTVDQDNKTTVRS
notes: recombinant in E. coli from pRSETA-SUMO with N-terminal His-SUMO tag (tag removal told only in supplement); native N-terminus MNKNDQET (from primer); tetramer per cited work
On to B1, for which, in data set [1], the Km came out at 26.95 ± 2.437 mM, the maximal velocity (Vmax) was 9.16 µmol/min/mg, the kcat was found to be 8.17 ± 0.405 s⁻¹ and the kcat/Km is 303 M⁻¹ s⁻¹.

B2: Lb. plantarum GadB (Lactiplantibacillus plantarum WCFS1) (protein)
chain: MAMLYGKHNHEAEEYLEPVFGAPSEQHDLPKYRLPKHSLSPREADRLVRDELLDEGNSRLNLATFCQTYMEPEAVELMKDTLAKNAIDKSEYPRTAEIENRCVNIIANLWHAPDDEHFTGTSTIGSSEACMLGGLAMKFAWRKRAQAAGLDLNAHRPNLVISAGYQVCWEKFCVYWDVDMHVVPMDEQHMALDVNHVLDYVDEYTIGIVGIMGITYTGQYDDLAALDKVVTHYNHQHPKLPVYIHVDAASGGFYTPFIEPQLIWDFRLANVVSINASGHKYGLVYPGVGWVVWRDRQFLPPELVFKVSYLGGELPTMAINFSHSAAQLIGQYYNFIRFGMDGYREIQTKTHDVARYLAAALDKVGEFKMINNGHQLPLICYQLASREDREWTLYDLSDRLLMNGWQVPTYPLPANLEQQVIQRIVVRADFGMNMAHDFMDDLTKAVHDLNHAHIVYHHDAAPKKYGFTH
notes: recombinant in E. coli from pET-28a(+), +GSHM at N-terminus (left after tag cleavage, details in supplement); start MAMLYGKH (from primer); about 54 kDa from kcat/Vmax; dimer per cited work
In the case of B2, in data set [2], the Michaelis constant (Km) stood at 20.02 ± 2.557 mM, the Vmax worked out at 73.3 µmol/min/mg, the kcat was found to be 65.9 ± 4.2 s⁻¹ and the catalytic efficiency (kcat/Km) worked out at 3290 M⁻¹ s⁻¹.
